Experimental data published in patent US20020197616A1 (REGENTS OF THE UNIVERSITY OF MICHIGAN, published 2002).

B1: TRADD (other, UniProt Q15628 1-312, looked up)
chain: MAAGQNGHEEWVGSAYLFVESSLDKVVLSDAYAHPQQKVAVYRALQAALAESGGSPDVLQMLKIHRSDPQLIVQLRFCGRQPCGRFLRAYREGALRAALQRSLAAALAQHSVPLQLELRAGAERLDALLADEERCLSCILAQQPDRLRDEELAELEDALRNLKCGSGARGGDGEVASAPLQPPVPSLSEVKPPPPPPPAQTFLFQGQPVVNRPLSLKDQQTFARSVGLKWRKVGRSLQRGCRALRDPALDSLAYEYEREGLYEQAFQLLRRFVQAEGRRATLQRLVEALEENELTSLAEDLLGLTDPNGGLA
notes: Construct and tag not described
B2: IKKα (enzyme, UniProt O15111 1-745, looked up)
chain: MERPPGLRPGAGGPWEMRERLGTGGFGNVCLYQHRELDLKIAIKSCRLELSTKNRERWCHEIQIMKKLNHANVVKACDVPEELNILIHDVPLLAMEYCSGGDLRKLLNKPENCCGLKESQILSLLSDIGSGIRYLHENKIIHRDLKPENIVLQDVGGKIIHKIIDLGYAKDVDQGSLCTSFVGTLQYLAPELFENKPYTATVDYWSFGTMVFECIAGYRPFLHHLQPFTWHEKIKKKDPKCIFACEEMSGEVRFSSHLPQPNSLCSLVVEPMENWLQLMLNWDPQQRGGPVDLTLKQPRCFVLMDHILNLKIVHILNMTSAKIISFLLPPDESLHSLQSRIERETGINTGSQELLSETGISLDPRKPASQCVLDGVRGCDSYMVYLFDKSKTVYEGPFASRSLSDCVNYIVQDSKIQLPIIQLRKVWAEAVHYVSGLKEDYSRLFQGQRAAMLSLLRYNANLTKMKNTLISASQQLKAKLEFFHKSIQLDLERYSEQMTYGISSEKMLKAWKEMEEKAIHYAEVGVIGYLEDQIMSLHAEIMELQKSPYGRRQGDLMESLEQRAIDLYKQLKHRPSDHSYSDSTEMVKIIVHTVQSQDRVLKELFGHLSKLLGCKQKIIDLLPKVEVALSNIKEADNTVMFMQGKRQKEIWHLLKIACTQSSARSLVGSSLEGAVTPQTSAWLPPTSAEHDHSLSCVVTPQDGETSAQMIEENLNCLGHLSTIIHEANEEQGNSMMNLDWSWLTE
notes: Construct and tag not described for this test
B3: TRAF-1 (other, UniProt Q13077 1-416, looked up)
chain: MASSSGSSPRPAPDENEFPFGCPPTVCQDPKEPRALCCAGCLSENPRNGEDQICPKCRGEDLQSISPGSRLRTQEKAHPEVAEAGIGCPFAGVGCSFKGSPQSVQEHEVTSQTSHLNLLLGFMKQWKARLGCGLESGPMALEQNLSDLQLQAAVEVAGDLEVDCYRAPCSESQEELALQHFMKEKLLAELEGKLRVFENIVAVLNKEVEASHLALATSIHQSQLDRERILSLEQRVVELQQTLAQKDQALGKLEQSLRLMEEASFDGTFLWKITNVTRRCHESACGRTVSLFSPAFYTAKYGYKLCLRLYLNGDGTGKRTHLSLFIVIMRGEYDALLPWPFRNKVTFMLLDQNNREHAIDAFRPDLSSASFQRPQSETNVASGCPLFFPLSKLQSPKHAYVKDDTMFLKCIVETST
notes: as for B1
B4: RICKΔCARD (residues 1-374), Flag-tagged (other, not shown: small tags and cut ends)
chain: MNGEAICSALPTIPYHKLADLRYLSRGASGTVSSARHADWRVQVAVKHLHIHTPLLDSERKDVLREAEILHKARFSYILPILGICNEPEFLGIVTEYMPNGSLNELLHRKTEYPDVAWPLRFRILHEIALGVNYLHNMTPPLLHHDLKTQNILLDNEFHVKIADFGLSKWRMMSLSQSRSSKSAPEGGTIIYMPPENYEPGQKSRASIKHDIYSYAVITWEVLSRKQPFEDVTNPLQIMYSVSQGHRPVINEESLPYDIPHRARMISLIESGWAQNPDERPSFLKCLIELEPVLRTFEEITFLEAVIQLKKTKLQSVSSAIHLCDKKKMELSLNIPVNHGPQEESCGSSQLHENSGSPETSRSLPAPQDNDFLS
notes: also called pcDNA3-Flag-RICK(1-374)
B5: TRAF-2 (other, UniProt Q12933 1-501, looked up)
chain: MAAASVTPPGSLELLQPGFSKTLLGTKLEAKYLCSACRNVLRRPFQAQCGHRYCSFCLASILSSGPQNCAACVHEGIYEEGISILESSSAFPDNAARREVESLPAVCPSDGCTWKGTLKEYESCHEGRCPLMLTECPACKGLVRLGEKERHLEHECPERSLSCRHCRAPCCGADVKAHHEVCPKFPLTCDGCGKKKIPREKFQDHVKTCGKCRVPCRFHAIGCLETVEGEKQQEHEVQWLREHLAMLLSSVLEAKPLLGDQSHAGSELLQRCESLEKKTATFENIVCVLNREVERVAMTAEACSRQHRLDQDKIEALSSKVQQLERSIGLKDLAMADLEQKVLEMEASTYDGVFIWKISDFARKRQEAVAGRIPAIFSPAFYTSRYGYKMCLRIYLNGDGTGRGTHLSLFFVVMKGPNDALLRWPFNQKVTLMLLDQNNREHVIDAFRPDVTSSSFQRPVNDMNIASGCPLFCPVSKMEAKNSYVRDDAIFIKAIVDLTGL
notes: as for B1
B6: RIP (enzyme, UniProt Q13546 1-671, looked up)
chain: MQPDMSLNVIKMKSSDFLESAELDSGGFGKVSLCFHRTQGLMIMKTVYKGPNCIEHNEALLEEAKMMNRLRHSRVVKLLGVIIEEGKYSLVMEYMEKGNLMHVLKAEMSTPLSVKGRIILEIIEGMCYLHGKGVIHKDLKPENILVDNDFHIKIADLGLASFKMWSKLNNEEHNELREVDGTAKKNGGTLYYMAPEHLNDVNAKPTEKSDVYSFAVVLWAIFANKEPYENAICEQQLIMCIKSGNRPDVDDITEYCPREIISLMKLCWEANPEARPTFPGIEEKFRPFYLSQLEESVEEDVKSLKKEYSNENAVVKRMQSLQLDCVAVPSSRSNSATEQPGSLHSSQGLGMGPVEESWFAPSLEHPQEENEPSLQSKLQDEANYHLYGSRMDRQTKQQPRQNVAYNREEERRRRVSHDPFAQQRPYENFQNTEGKGTAYSSAASHGNAVHQPSGLTSQPQVLYQNNGLYSSHGFGTRPLDPGTAGPRVWYRPIPSHMPSLHNIPVPETNYLGNTPTMPFSSLPPTDESIKYTIYNSTGIQIGAYNYMEIGGTSSSLLDSTNTNFKEEPAAKYQAIFDNTTSLTDKHLDPIRENLGKHWKNCARKLGFTQSQIDEIDHDYERDGLKEKVYQMLQKWVMREGIKGATVGKLAQALHQCSRIDLLSSLIYVSQN
notes: as for B1
B7: Ced-4 (other, UniProt P30429 1-549, looked up)
chain: MLCEIECRALSTAHTRLIHDFEPRDALTYLEGKNIFTEDHSELISKMSTRLERIANFLRIYRRQASELGPLIDFFNYNNQSHLADFLEDYIDFAINEPDLLRPVVIAPQFSRQMLDRKLLLGNVPKQMTCYIREYHVDRVIKKLDEMCDLDSFFLFLHGRAGSGKSVIASQALSKSDQLIGINYDSIVWLKDSGTAPKSTFDLFTDILLMLKSEDDLLNFPSVEHVTSVVLKRMICNALIDRPNTLFVFDDVVQEETIRWAQELRLRCLVTTRDVEISNAASQTCEFIEVTSLEIDECYDFLEAYGMPMPVGEKEEDVLNKTIELSSGNPATLMMFFKSCEPKTFEKMAQLNNKLESRGLVGVECITPYSYKSLAMALQRCVEVLSDEDRSALAFAVVMPPGVDIPVKLWSCVIPVDICSNEEEQLDDEVADRLKRLSKRGALLSGKRMPVLTFKIDHIIHMFLKHVVDAQTIANGISILEQRLLEIGNNNVSVPERHIPSHFQKFRRSSASEMYPKTTEETVIRPEDFPKFMQLHQKFYDSLKNFACC
notes: as for B1

Biological target: T1, Nod2 (wild-type, HA-tagged) (human, UniProt Q9HC29 1-1040)
T1 construct: Expressed in HEK293T cells and tested in cell extracts by co-immunoprecipitation; also called Nod2a; wt Nod2; not shown: HA tag; the plasmid is named both pcDNA3-Nod2-HA and pcDNA3-HA-Nod2, so the end that carries the ta
T1 sequence (Q9HC29 whole entry): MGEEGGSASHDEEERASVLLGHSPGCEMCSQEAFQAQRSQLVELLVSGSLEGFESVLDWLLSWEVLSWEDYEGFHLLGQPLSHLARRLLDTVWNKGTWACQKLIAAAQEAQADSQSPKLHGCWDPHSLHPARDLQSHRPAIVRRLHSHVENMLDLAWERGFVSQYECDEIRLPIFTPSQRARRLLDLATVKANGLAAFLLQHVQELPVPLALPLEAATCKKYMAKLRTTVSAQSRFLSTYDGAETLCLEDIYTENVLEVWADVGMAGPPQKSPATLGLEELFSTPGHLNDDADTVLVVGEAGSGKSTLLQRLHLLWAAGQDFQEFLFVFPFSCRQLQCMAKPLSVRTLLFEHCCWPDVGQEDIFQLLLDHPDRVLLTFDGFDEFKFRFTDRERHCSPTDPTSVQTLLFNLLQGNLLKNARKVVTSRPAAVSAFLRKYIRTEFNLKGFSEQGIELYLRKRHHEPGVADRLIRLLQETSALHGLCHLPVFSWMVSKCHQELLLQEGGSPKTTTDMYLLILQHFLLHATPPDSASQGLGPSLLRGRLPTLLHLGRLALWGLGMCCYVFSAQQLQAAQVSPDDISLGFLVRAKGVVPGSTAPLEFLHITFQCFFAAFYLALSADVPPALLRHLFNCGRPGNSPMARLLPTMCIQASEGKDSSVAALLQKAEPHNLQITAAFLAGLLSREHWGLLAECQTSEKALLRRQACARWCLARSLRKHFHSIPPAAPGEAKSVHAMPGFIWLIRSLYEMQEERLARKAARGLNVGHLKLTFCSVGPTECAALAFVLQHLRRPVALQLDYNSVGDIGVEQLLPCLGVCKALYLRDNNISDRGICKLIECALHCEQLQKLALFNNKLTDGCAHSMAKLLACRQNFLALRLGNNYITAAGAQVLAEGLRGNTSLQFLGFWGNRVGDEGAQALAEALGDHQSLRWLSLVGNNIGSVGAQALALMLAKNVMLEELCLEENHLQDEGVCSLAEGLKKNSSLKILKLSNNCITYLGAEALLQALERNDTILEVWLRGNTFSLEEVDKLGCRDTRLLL
Assay: co-immunoprecipitation, HEK293T extracts
Excerpt: Proteins co-immunoprecipitated with anti-HA antibody were detected with anti-Flag antibody. […] Proteins in total lysate were detected by anti-Flag and anti-HA monoclonal antibody, respectively. […]

Binding result, no binding:
B1
B2
B3
B4
B5
B6
B7
